Paper PMC3573116 (PLoS Pathogens, 2013)

These binders were tested against T1, DENV2 D2S10 envelope (E) protein on virions (dengue virus 2 (DENV2), strain D2S10) (assay: ELISA). Details: one partner purified.
T1 construct: also called DENV2 virions

Binder | Kd [nM]
chimeric human-mouse MAb E60 (human IgG1), non-modified (antibody, V domains shown, also called intact E60; E60 parent; source: HEK-293T, transfected, purified from supernatant (protein A)) VH: EVQVQQSGPELVTPGASVKISCKTSGYTFTEYTVHWVKQSHGKSLEWIGGINPTSGGTNYNQRFRGKATLTVDRSSSTAYMELRSLTSEDSAVYFCAGTLYGYPFDFWGQGTTLTVSS VL: DILMTQSPSSMSVSLGDSVSITCHASQGISGNIGWLQQKPGKSFKGLIYHGTNLEEGVPSRFSGSGSGADYSLTISSLESEDFADYYCVQYGQFPPTFGGGTKLEIK | 1.14
human MAb 87.1 LALA (IgG1) (antibody, V domains shown, source: HEK-293T, purified (protein A, size-exclusion chromatography)) VH: EVQLVESGGGLVQPGRSLRLSCAASGFTFDDYAMFWVRQAPGKGLEWISGISWNSATIGYADSVKGRFTISRDNAKKSLDLQMNSLRPDDTALYYCAKGGPRGLQLLSSWVDYWGQGTLVTVSS VL: DIQMTQSPSSLSASVGDRVTITCRASQDIRRYLNWYQQRPGRVPQLLIYTTSTLQSGVPSRFSGSGSVTDFTLTISSLQPEDFGTYYCQQSYSPPHTFGQGTKLEIK | 0.34
chimeric human-mouse MAb E76 (human IgG1), non-modified (antibody, V domains shown, source: HEK-293T, transfected, purified from supernatant (protein A)) VH: QVTLKESGPGILQSSQTLSLTCSFSGFSLSTSSMGVSWIRQPSGKGLEWLAHIYWDDDKRYSPSLKSRLTISKDTSRNQVFLKITSVENVDSATYYCARKDGYVPYSLDYWGQGISVTVSS VL: DIVMTQSHKFMSTSVGDRVSISCKASQAVGTAVAWYQQKPGQSPKLLIYWASTRHTGVPDRFTGSGSGTDFTLTINNVQSEDLADYFCHQYTSYPLTFGTGTKLELK | 0.84
chimeric human-mouse MAb E76 N297Q (human IgG1, aglycosylated) (antibody, V domains shown, source: HEK-293T, transfected, purified from supernatant (protein A)) VH: QVTLKESGPGILQSSQTLSLTCSFSGFSLSTSSMGVSWIRQPSGKGLEWLAHIYWDDDKRYSPSLKSRLTISKDTSRNQVFLKITSVENVDSATYYCARKDGYVPYSLDYWGQGISVTVSS VL: DIVMTQSHKFMSTSVGDRVSISCKASQAVGTAVAWYQQKPGQSPKLLIYWASTRHTGVPDRFTGSGSGTDFTLTINNVQSEDLADYFCHQYTSYPLTFGTGTKLELK | 1.1
chimeric human-mouse MAb E44 (human IgG1), non-modified (antibody, V domains shown, source: HEK-293T, transfected, purified from supernatant (protein A)) VH: QVQLKESGPGLVAPSQSLSITCTVSGFSLTSYGVDWVRQSPGKGLEWLGVIWGAGSTNYNSAFRSRLSISKDNSKSQVFLKMNSLQTDDTAMYYCASGTGTGAMDYWGQGTSVTVSS VL: DIVLTQSPATLSVTPGDSVSLSCRASQSISNNLHWYQQKSHESPRLLIFYSSQSISGIPSRFSGSGSGTDFTLRINSVETEDFGMYFCQQSNNWPHTFGRGTKLDMK | 0.14
chimeric human-mouse MAb E44 N297Q (human IgG1, aglycosylated) (antibody, V domains shown, source: HEK-293T, transfected, purified from supernatant (protein A)) VH: QVQLKESGPGLVAPSQSLSITCTVSGFSLTSYGVDWVRQSPGKGLEWLGVIWGAGSTNYNSAFRSRLSISKDNSKSQVFLKMNSLQTDDTAMYYCASGTGTGAMDYWGQGTSVTVSS VL: DIVLTQSPATLSVTPGDSVSLSCRASQSISNNLHWYQQKSHESPRLLIFYSSQSISGIPSRFSGSGSGTDFTLRINSVETEDFGMYFCQQSNNWPHTFGRGTKLDMK | 0.84
chimeric human-mouse MAb E87 (human IgG1), non-modified (antibody, V domains shown, source: HEK-293T, transfected, purified from supernatant (protein A)) VH: QVQLQQPGADLVRPGTSVKLSCKASGYTFTIYWMHWVKQRPGQGLEWIGVIDPSAGYTNYSQNFKDKATLTVDTSSSTAYMQLNSLTSEDSAVYYCARHGHYFGTSYWYFDVWGTGTTVTVSS VL: DIVMSQSPSSLAVSVGEKVTMRCKSSQSLLYSRNQKNYLAWYQQKPGQSPKVLIYWASTRESGVPDRFTGSGSGTDFTLTISSVKTEDLSVYYCQQYYSYPFTFGSGTKLEIK | 1.07
chimeric human-mouse MAb E87 N297Q (human IgG1, aglycosylated) (antibody, V domains shown, source: HEK-293T, transfected, purified from supernatant (protein A)) VH: QVQLQQPGADLVRPGTSVKLSCKASGYTFTIYWMHWVKQRPGQGLEWIGVIDPSAGYTNYSQNFKDKATLTVDTSSSTAYMQLNSLTSEDSAVYYCARHGHYFGTSYWYFDVWGTGTTVTVSS VL: DIVMSQSPSSLAVSVGEKVTMRCKSSQSLLYSRNQKNYLAWYQQKPGQSPKVLIYWASTRESGVPDRFTGSGSGTDFTLTISSVKTEDLSVYYCQQYYSYPFTFGSGTKLEIK | 1.43
chimeric human-mouse MAb E60 N297Q (human IgG1, aglycosylated) (antibody, V domains shown, also called modified E60; source: HEK-293T, transfected, purified from supernatant (protein A)) VH: EVQVQQSGPELVTPGASVKISCKTSGYTFTEYTVHWVKQSHGKSLEWIGGINPTSGGTNYNQRFRGKATLTVDRSSSTAYMELRSLTSEDSAVYFCAGTLYGYPFDFWGQGTTLTVSS VL: DILMTQSPSSMSVSLGDSVSITCHASQGISGNIGWLQQKPGKSFKGLIYHGTNLEEGVPSRFSGSGSGADYSLTISSLESEDFADYYCVQYGQFPPTFGGGTKLEIK | 1.18
human MAb 82.11 LALA (IgG1) (antibody, V domains shown, source: HEK-293T, purified (protein A, size-exclusion chromatography)) VH: QAHLVESGGGVVQPGRSLRLSCAASAFNFSTNAMHWVRQAPGKGLEWVAVISYDGSHKYYADSVKGRFTISRDNSKNTLYLQMNSLRAADTAVYYCATVGVLTWPVNAEYFHHWGQGSLVSVSS VL: QSVLTQPPSVSGAPGQRVTISCTGSSSNIGAGYDVHWYQQLPGTAPKLLICGNNNRPSGVPDRFSGSKSGTSASLAITGLQAEDEADYYCQSYDSSLTGVVFGGGTKLTVL | 0.91
chimeric human-mouse MAb E18 (human IgG1), non-modified (antibody, V domains shown, source: HEK-293T, transfected, purified from supernatant (protein A)) VH: QIQLVQSGPELKKPGETVKISCKASGYTFTDYSMHWVKQAPGKGLKWMGWFNTETGEPTYADDFKGRFAFSLETSASTAFLQINNLKNEDTATYFCARGGDFYSVDYWGQGTSVTVSS VL: DIQMTQTTSSLSASLGDRVTISCRASQDITNYLNWYQQKPDGTVKLLIYYTSGLHSGVPSRFSGSGSGTDYSLTISNLEQEDIATYFCQQGNTLPPTFGGGTKLEIK | 2.74
chimeric human-mouse MAb E18 N297Q (human IgG1, aglycosylated) (antibody, V domains shown, source: HEK-293T, transfected, purified from supernatant (protein A)) VH: QIQLVQSGPELKKPGETVKISCKASGYTFTDYSMHWVKQAPGKGLKWMGWFNTETGEPTYADDFKGRFAFSLETSASTAFLQINNLKNEDTATYFCARGGDFYSVDYWGQGTSVTVSS VL: DIQMTQTTSSLSASLGDRVTISCRASQDITNYLNWYQQKPDGTVKLLIYYTSGLHSGVPSRFSGSGSGTDYSLTISNLEQEDIATYFCQQGNTLPPTFGGGTKLEIK | 3.46
chimeric human-mouse MAb E28 (human IgG1), non-modified (antibody, V domains shown, source: HEK-293T, transfected, purified from supernatant (protein A)) VH: QIQLVQSGPELKKPGETVKISCKASGYTFTDYSMHWVKQTPGKGLKWLGWINPKTGEPTYVDDFKGRFAFYLETSSSTAYLQITNLKNEDTATYFCARGYDYYSVDYWGQGTLVTVSS VL: DIQMTQTTSSLSASLGARVTISCRANQDINNYLHWYQQKPDGTIKLLVYYTSGLHSGVPSRFIGSGSGTDYSLTITNLEQEDIATYFCQQGNTLPLTFGAGTKLELK | 2.7
chimeric human-mouse MAb E28 N297Q (human IgG1, aglycosylated) (antibody, V domains shown, source: HEK-293T, transfected, purified from supernatant (protein A)) VH: QIQLVQSGPELKKPGETVKISCKASGYTFTDYSMHWVKQTPGKGLKWLGWINPKTGEPTYVDDFKGRFAFYLETSSSTAYLQITNLKNEDTATYFCARGYDYYSVDYWGQGTLVTVSS VL: DIQMTQTTSSLSASLGARVTISCRANQDINNYLHWYQQKPDGTIKLLVYYTSGLHSGVPSRFIGSGSGTDYSLTITNLEQEDIATYFCQQGNTLPLTFGAGTKLELK | 2.88
